Measurements taken from the DeepSol protein solubility set.

assay: soluble on expression in E. coli; label from the status in PepcDB or PDB records

| Sequence | soluble on expression in E. coli |
| --- | --- |
| MGSSHHHHHHSSENLYFQGHMSDLPRISVAAPRLDGNERDYVLECMDTTWISSVGRFIVEFEKAFADYCGVKHAIACNNGTTALHLALVAMGIGPGDEVIVPSLTYIASANSVTYCGATPVLVDNDPRTFNLDAAKLEALITPRTKAIMPVHLYGQICDMDPILEVARRHNLLVIEDAAEAVGATYRGKKSGSLGDCATFSFFGNKIITTGEGGMITTNDDDLAAKMRLLRGQGMDPNRRYWFPIVGFNYRMTNIQAAIGLAQLERVDEHLAARERVVGWYEQKLARLGNRVTKPHVALTGRHVFWMYTVRLGEGLSTTRDQVIKDLDALGIESRPVFHPMHIMPPYAHLATDDLKIAEACGVDGLNLPTHAGLTEADIDRVIAALDQVLV | soluble |
| MGSSHHHHHHSSGLEVLFQGPLHMRTQGIKPRIREILSKELPEELVKLLPKRWVRIGDVLLLPLRPELEPYKHRIAEVYAEVLGVKTVLRKGHIHGETRKPDYELLYGSDTVTVHVENGIKYKLDVAKIMFSPANVKERVRMAKVAKPDELVVDMFAGIGHLSLPIAVYGKAKVIAIEKDPYTFKFLVENIHLNKVEDRMSAYNMDNRDFPGENIADRILMGYVVRTHEFIPKALSIAKDGAIIHYHNTVPEKLMPREPFETFKRITKEYGYDVEKLNELKIKRYAPGVWHVVLDLRVFKS | soluble |
| MGSSHHHHHHSSGLVPRGSEVVIVSATRTPIGSFLGSLSLLPATKLGSIAIQGAIEKAGIPKEEVKEAYMGNVLQGGEGQAPTRQAVLGAGLPISTPCTTINKVCASGMKAIMMASQSLMCGHQDVMVAGGMESMSNVPYVMNRGSTPYGGVKLEDLIVKDGLTDVYNKIHMGSCAENTAKKLNIARNEQDAYAINSYTRSKAAWEAGKFGNEVIPVTVTVKGQPDVVVKEDEEYKRVDFSKVPKLKTVFQKENGTVTAANASTLNDGAAALVLMTADAAKRLNVTPLARIVAFADAAVEPIDFPIAPVYAASMVLKDVGLKKEDIAMWEVNEAFSLVVLANIKMLEIDPQKVNINGGAVSLGHPIGMSGARIVGHLTHALKQGEYGLASICNGGGGASAMLIQKL | soluble |
| MGSSHHHHHHSSGLVPRGSHMANVAIIGTEKSGRTSLAANLGKKGTSSDITMYNNDKEGRNMVFVDAHSYPKTLKSLITALNISDIAVLCIPPQGLDAHTGECIIALDLLGFKHGIIALTRSDSTHMHAIDELKAKLKVITSGTVLQDWECISLNTNKSAKNPFEGVDELKARINEVAEKIEAENAELNSLPARIFIDHAFNVTGKGCVVLGVVKQGISKDKDKTKIFPLDRDIEIRSIQSHDVDIDSAPAGTRVGMRLKNVQAKDIERGFIISDKEIVTTDYTLECTVSKFTKKIEPASVLHLFVGLQSEPVRVEKILVDGNEVEEAKPGSTCVLELSGNKKLAYSKQDRFLLANLDLTQRFAAYGFSK | soluble |
| MGSSHHHHHHSSGLVPRGSHMASKNVSIIGSPLAAGQPLGGVQLACDDLRKLGLHNVIDVLGWKYEDIGNIDNGDNEMKQEKKTNNYINNNDNNNDNNNDNNNDNNNNCYIPNGVIKEKKHDLSNNKMNGYVNHNFYGNYEENNVISTNDKYKNNCYYDNIRNIKEIGIFSKNLFDTMSNELRKKNFVLNIGGDHGVAFSSILSSLQMYQNLRVIWIDAHGDINIPETSPSGNYHGMTLAHTLGLFKKKVPYFEWSENLTYLKPENTAIIGIRDIDAYEKIILKKCNINYYTIFDIEKNGIYNTICTALEKIDPNSNCPIHISLDIDSVDNVFAPGTGTVAKGGLNYREINLLMKILAETKRVVSMDLVEYNPSLDEVDKKVHGDSLPILDNATKTGKLCLELIARVLGYDIV | soluble |
| MGSSHHHHHHSSGLVPRGSHMASNPNDDMPVDKILEAELISDPKVEQVVPFEQVNENDPVSNICKAADRQLVTLVEWAKRIPHFSSLPLEDQVILLRAGWNELLIASFSHRSIDVKDSILLASGLHVHRHSAHQAGVGPIFDRVLTELVSKMRDMMMDKTELGCLRAVVLFNPDVKNPSDSAHIESLREKVYASLEAYCRSKYPDQPGRFAKLLLRLPALRSIGLKCLEHLFFFKLIGDTPIDKFLMNMLETTSDFPV | soluble |
| MGSSHHHHHHSSGLVPRGSHMEGRLLLLETPGNTRMSLAYDEAIYRSFQYGDKPILRFYRHDRSVIIGYFQVAEEEVDLDYMKKNGIMLARRYTGGGAVYHDLGDLNFSVVRSSDDMDITSMFRTMNEAVVNSLRILGLDARPGELNDVSIPVNKKTDIMAGEKKIMGAAGAMRKGAKLWHAAMLVHTDLDMLSAVLKVPDEKFRDKIAKSTRERVANVTDFVDVSIDEVRNALIRGFSETLHIDFREDTITEKEESLARELFDKKYSTEEWNMGLLRKEVV | soluble |
| MGSSHHHHHHSSGLVPRGSHMHSVVQSVTDRIIARSKASREAYLAALNDARNHGVHRSSLSCGNLAHGFAACNPDDKNALRQLTKANIGIITAFNDMLSAHQPYETYPDLLKKACQEVGSVAQVAGGVPAMCDGVTQGQPGMELSLLSREVIAMATAVGLSHNMFDGALLLGICDKIVPGLLIGALSFGHLPMLFVPAGPMKSGIPNKEKARIRQQFAQGKVDRAQLLEAEAQSYHSAGTCTFYGTANSNQLMLEVMGLQLPGSSFVNPDDPLREALNKMAAKQVCRLTELGTQYSPIGEVVNEKSIVNGIVALLATGGSTNLTMHIVAAARAAGIIVNWDDFSELSDAVPLLARVYPNGHADINHFHAAGGMAFLIKELLDAGLLHEDVNTVAGYGLRRYTQEPKLLDGELRWVDGPTVSLDTEVLTSVATPFQNNGGLKLLKGNLGRAVIKVSAVQPQHRVVEAPAVVIDDQNKLDALFKSGALDRDCVVVVKGQGPKANGMPELHKLTPLLGSLQDKGFKVALMTDGRMSGASGKVPAAIHLTPEAIDGGLIAKVQDGDLIRVDALTGELSLLVSDTELATRTATEIDLRHSRYGMGRELFGVLRSNLSSPETGARSTSAIDELY | soluble |
| MGSSHHHHHHSSGLVPRGSHMKPVLTVYTYDSFAADWGPGPVVKKAFEADCNCELKLVALEDGVSLLNRLRMEGKNSKADVVLGLDNNLLDAASKTGLFAKSGVAADAVNVPGGWNNDTFVPFDYGYFAFVYDKNKLKNPPQSLKELVESDQNWRVIYQDPRTSTPGLGLLLWMQKVYGDDAPQAWQKLAKKTVTVTKGWSEAYGLFLKGESDLVLSYTTSPAYHILEEKKDNYAAANFSEGHYLQVEVAARTAASKQPELAQKFLQFMVSPAFQNAIPTGNWMYPVANVTLPAGFEKLTKPATTLEFTPAEVAAQRQAWISEWQRAVSR | soluble |
| MGSSHHHHHHSSGLVPRGSHMLPKPDQINQIIVLLNIYHGKKKPSEIAREMDITLQGVIYHMKNLRRDGLIDEENRITKKGFDFLYRQLSDMREFITSNILDLDSLMVWEAIAAEDITAGSTVHLRMKGGYLYAFLSGGGATGRAVNDSQAGGLVGITNLSGLIDVNFGKLSIIVIPDSIDGGISERLKKAAADLSPALFAAMGEAGYVALKNIGIEPDIEYSALQAAFEASVRGQNVVLVTSRRRLHYSMAEIPQLENRYNPVKANITDLS | soluble |
| MGSSHHHHHHSSGLVPRGSHMNIPRFGVKTDQEELLAQELENLNKWGLNIFCVSDYAGGRSLTCIMYMIFQERDLLKKFRIPVDTMVTYMLTLEDHYHADVAYHNSLHAADVLQSTHVLLATPALDAVFTDLEILAALFAAAIHDVDHPGVSNQFLINTNSELALMYNDESVLENHHLAVGFKLLQEDNCDIFQNLSKRQRQSLRKMVIDMVLATDMSKHMTLLADLKTMVETKKVTSSGVLLLDNYSDRIQVLRNMVHCADLSNPTKPLELYRQWTDRIMAEFFQQGDRERERGMEISPMCDKHTASVEKSQVGFIDYIVHPLWETWADLVHPDAQEILDTLEDNRDWYYSAI | soluble |
| MGSSHHHHHHSSGLVPRGSHMRTVTGAILAMNLEVKDFVHRDVEEADRRLREIGARKILLQLPDGLKPYAFDYFTYLSQRYDVILSSSPVYGACDIGPSYLYDRVDAIVQVGHSIMRNVKYPRPVIFIEHYRTVDVEDINTEALKNYRRIGLIYSIQYRPVADRVKRILESKGFEVIIGRSDRRMTYDGQVLGCNFSSVHSVEAEVEAFVIVSTGSFHALGSQISTERPVFLLDLNEMSLRSMEKEADTFIRKRYAQIYRAMDAKRICFLVDTRIGQRREKLARMLMDRARDLGKEAVLAYTDNISDQDIQNMGCDLAVYTGCPRVPIDDQDRFTVPVLTPAEFSMAFFKSSKRYVLDEIVSVDEFTDQ | soluble |
